# Test results published in patent US20060172938.
# System: T1, cyclic peptide CDMWERVSRC
# T1 sequence: CDMWERVSRC
# Sequence of Native seprase isolated from LOX cells (chain): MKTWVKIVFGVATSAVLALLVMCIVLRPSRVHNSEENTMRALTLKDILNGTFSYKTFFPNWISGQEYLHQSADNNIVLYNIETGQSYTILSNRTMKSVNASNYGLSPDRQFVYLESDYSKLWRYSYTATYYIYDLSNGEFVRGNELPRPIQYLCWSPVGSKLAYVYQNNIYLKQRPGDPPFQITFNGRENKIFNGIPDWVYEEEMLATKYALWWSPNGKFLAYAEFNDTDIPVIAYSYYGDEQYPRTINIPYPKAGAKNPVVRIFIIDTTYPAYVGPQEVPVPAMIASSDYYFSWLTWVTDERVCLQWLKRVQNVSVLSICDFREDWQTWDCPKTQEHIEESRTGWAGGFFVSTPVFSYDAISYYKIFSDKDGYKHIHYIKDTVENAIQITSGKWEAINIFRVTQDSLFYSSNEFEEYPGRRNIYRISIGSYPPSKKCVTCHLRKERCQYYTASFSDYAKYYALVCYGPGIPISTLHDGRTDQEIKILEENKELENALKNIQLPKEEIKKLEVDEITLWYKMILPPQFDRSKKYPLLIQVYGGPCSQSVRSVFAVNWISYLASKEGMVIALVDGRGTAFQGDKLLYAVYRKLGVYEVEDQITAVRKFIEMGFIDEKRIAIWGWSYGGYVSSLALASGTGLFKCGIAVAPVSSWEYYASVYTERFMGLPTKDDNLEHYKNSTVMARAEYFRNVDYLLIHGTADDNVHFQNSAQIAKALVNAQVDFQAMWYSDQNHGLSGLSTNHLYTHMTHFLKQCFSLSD
substance,measurement,value
Native seprase isolated from LOX cells,increase of the catalytic Km for Gly-Pro-pNA (Lineweaver-Burke analysis),"When the concentration of CDMWERVSRC [SEQ ID NO: 3] was 62.5 mM, the catalytic Km value increased by 5 times (from 0.7 mM to 3.5 mM)"
